Results: patent US20090149339A1 (published 2009)
Ends that are not written are not given here. * marks the point of attachment. Biotin = O=C1N[C@H]2[C@H](CS[C@H]2CCCCC(=O)*)N1

Tests used:
[1] = molecular target: T1, GST-TIAM1 PDZ domain fusion protein (T-lymphoma invasion and metastasis inducing protein 1 AA1001-1088); PDZ 1 … (UniProt P08515 1-218 = GST); assay: A assay
[2] = molecular target: GST-LIM PDZ domain fusion protein (Human LIM protein AA29-112; PDZ domain 1 of 1) (human, UniProt P08515 1-218 = GST); assay: A/G assays
[3] = molecular target: GST-LIMK2 PDZ domain fusion protein (human LIM domain kinase 2 AA185-275; PDZ domain 1 of 1) (human, UniProt P08515 1-218 = GST); assay: A/G assays
[4] = molecular target: T2, GST-MPP2 PDZ domain fusion protein (maguk p55 subfamily member 2 (DLG2) AA185-273; PDZ domain 1 of 1) (UniProt P08515 1-218 = GST); assay: A/G assays
T2 construct: also called MMP2

[5] = molecular target: GST-NOS1 PDZ domain fusion protein (human neuronal nitric oxide synthase; PDZ domain 1 of 1) (human, UniProt P08515 1-218 = GST); assay: A/G assays
[6] = molecular target: GST-AF6 PDZ domain fusion protein (af-6 protein AA985-1077; PDZ domain 1 of 1) (UniProt P08515 1-218 = GST); assay: A/G assays
[7] = molecular target: GST-PTN-4 PDZ domain fusion protein (protein-tyrosine phosphatase meg1 AA774-862; PDZ domain 1 of 1) (UniProt P08515 1-218 = GST); assay: A/G assays
[8] = molecular target: GST-prIL16 PDZ domain fusion protein (putative interleukin 16 precursor AA170-383; PDZ domains 1-2 of 2) (UniProt P08515 1-218 = GST); assay: A/G assays
[9] = molecular target: T3, GST-KIAA0559 PDZ domain fusion protein (KIAA0559 AA766-870; PDZ1 of 1) (UniProt P08515 1-218 = GST); assay: A/G assays
T3 construct: also called K559

[10] = molecular target: GST-MPP1 PDZ domain fusion protein (55 Kd erythrocyte membrane protein AA101-186; PDZ domain 1 of 1) (UniProt P08515 1-218 = GST); assay: A/G assays
[11] = molecular target: T4, GST-RGS12 PDZ domain fusion protein (human regulator of G-protein signalling 12 AA35-103; PDZ domain 1 of 1) (human, UniProt P08515 1-218 = GST); assay: A/G assays
T4 construct: also called RSG12

[12] = molecular target: T5, GST-KIAA0316 PDZ domain fusion protein (KIAA0316 AA197-284; PDZ domain 1 of 1) (UniProt P08515 1-218 = GST); assay: A/G assays
T5 construct: also called K316

[13] = molecular target: T6, GST-DVL1 PDZ domain fusion protein (human dishevelled segment polarity protein homolog AA248-340); PDZ domain … (human, UniProt P08515 1-218 = GST); assay: A/G assays
[14] = molecular target: T7, GST-TAX40 PDZ domain fusion protein (human tax interaction protein 40 AA35-137; PDZ domain 1 of 1) (human, UniProt P08515 1-218 = GST); assay: A/G assays
T7 construct: also called TX 40

[15] = molecular target: T8, GST-KIAA0303 PDZ domain fusion protein (KIAA0303 AA652-742; PDZ domain 1 of 1) (UniProt P08515 1-218 = GST); assay: A/G assays
T8 construct: also called K303

[16] = molecular target: T9, GST-CBP PDZ domain fusion protein (Cytohesin binding protein HE AA85-175; PDZ domain 1 of 1) (UniProt P08515 1-218 = GST); assay: A/G assays
T9 construct: also called Prot

[17] = molecular target: GST-MINT3 PDZ domain fusion protein (human MINT3 AA11-52; PDZ domain 1 of 1) (human, UniProt P08515 1-218 = GST); assay: A/G assays
[18] = molecular target: T10, GST-TAX2 PDZ domain fusion protein (human tax interaction protein 2 AA54-140; PDZ domain 1 of 1) (human, UniProt P08515 1-218 = GST); assay: A/G assays
T10 construct: also called TX 2

[19] = molecular target: T11, GST-PSD95 PDZ domain fusion protein (human post-synaptic density protein 95 AA387-724; PDZ domains 1-3 of 3) (human, UniProt P08515 1-218 = GST); assay: A/G assays
[20] = molecular target: T12, GST-NeDLG PDZ domain fusion protein (presynaptic protein sao102, neuroendocrine-dlg; PDZ domains 1-2 of 3) (UniProt P08515 1-218 = GST); assay: A/G assays
T12 construct: also called NeDLG1

[21] = molecular target: T13, GST-TAX33 PDZ domain fusion protein (tax interaction protein 33 AA73-162; PDZ domain 1 of 1) (UniProt P08515 1-218 = GST); assay: A/G assays
T13 construct: also called TX33

[22] = molecular target: T14, GST-SYN1a PDZ domain fusion protein (alpha1-syntrophin AA96-189; PDZ domain 1 of 1) (UniProt P08515 1-218 = GST); assay: A/G assays
T14 construct: also called SYN 1 alpha; SYNTR 1 alpha

[23] = molecular target: T15, GST-TAX43 PDZ domain fusion protein (human tax interaction protein 43 AA15-85; PDZ domain 1 of 1) (human, UniProt P08515 1-218 = GST); assay: A/G assays
T15 construct: also called TX 43

[24] = molecular target: T16, GST-41.8 kD PDZ domain fusion protein (hypothetical 41.8 kD protein AA4-85; PDZ domain 1 of 1) (UniProt P08515 1-218 = GST); assay: A and G assays
T16 construct: also called hypoth

[25] = molecular target: T16, GST-41.8 kD PDZ domain fusion protein …; assay: A assay
[26] = molecular target: T11, GST-PSD95 PDZ domain fusion protein …; assay: A assay
[27] = molecular target: T17, GST-CASK PDZ domain fusion protein (CASK AA495-584; PDZ domain 1 of 1) (mouse, UniProt P08515 1-218 = GST); assay: A/G assays
T17 construct: also called mCASK

[28] = molecular target: T1, GST-TIAM1 PDZ domain fusion protein …; assay: A/G assays
[29] = molecular target: T12, GST-NeDLG PDZ domain fusion protein …; assay: A and G assays
[30] = molecular target: T4, GST-RGS12 PDZ domain fusion protein …; assay: A assay
[31] = molecular target: T6, GST-DVL1 PDZ domain fusion protein …; assay: A assay
[32] = molecular target: T11, GST-PSD95 PDZ domain fusion protein …; assay: A and G assays

GST-MPP1 PDZ domain fusion protein (55 Kd erythrocyte membrane protein AA101-186; PDZ domain 1 of 1), sequence (P08515 1-218, tags or fused parts left off): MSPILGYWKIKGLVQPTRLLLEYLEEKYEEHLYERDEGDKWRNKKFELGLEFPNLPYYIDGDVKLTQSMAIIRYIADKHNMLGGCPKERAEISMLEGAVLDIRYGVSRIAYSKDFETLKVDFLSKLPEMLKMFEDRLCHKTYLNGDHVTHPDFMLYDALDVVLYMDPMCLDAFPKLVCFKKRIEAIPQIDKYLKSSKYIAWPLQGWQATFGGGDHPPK
T7 sequence (P08515 1-218, tags or fused parts left off): as above
GST-PTN-4 PDZ domain fusion protein (protein-tyrosine phosphatase meg1 AA774-862; PDZ domain 1 of 1), sequence (P08515 1-218, tags or fused parts left off): as above
T12 sequence (P08515 1-218, tags or fused parts left off): as above
T13 sequence (P08515 1-218, tags or fused parts left off): as above
GST-LIMK2 PDZ domain fusion protein (human LIM domain kinase 2 AA185-275; PDZ domain 1 of 1), sequence (P08515 1-218, tags or fused parts left off): as above
T5 sequence (P08515 1-218, tags or fused parts left off): as above
T1 sequence (P08515 1-218, tags or fused parts left off): as above
T15 sequence (P08515 1-218, tags or fused parts left off): as above
GST-AF6 PDZ domain fusion protein (af-6 protein AA985-1077; PDZ domain 1 of 1), sequence (P08515 1-218, tags or fused parts left off): as above
T10 sequence (P08515 1-218, tags or fused parts left off): as above
T8 sequence (P08515 1-218, tags or fused parts left off): as above
T3 sequence (P08515 1-218, tags or fused parts left off): as above
GST-NOS1 PDZ domain fusion protein (human neuronal nitric oxide synthase; PDZ domain 1 of 1), sequence (P08515 1-218, tags or fused parts left off): as above
T6 sequence (P08515 1-218, tags or fused parts left off): as above
T16 sequence (P08515 1-218, tags or fused parts left off): as above
GST-LIM PDZ domain fusion protein (Human LIM protein AA29-112; PDZ domain 1 of 1), sequence (P08515 1-218, tags or fused parts left off): as above
GST-MINT3 PDZ domain fusion protein (human MINT3 AA11-52; PDZ domain 1 of 1), sequence (P08515 1-218, tags or fused parts left off): as above
T11 sequence (P08515 1-218, tags or fused parts left off): as above
T9 sequence (P08515 1-218, tags or fused parts left off): as above
T14 sequence (P08515 1-218, tags or fused parts left off): as above

Row | Binder | binding result [2] | binding result [3] | binding result [4] | binding result [5] | binding result [6] | binding result [7] | binding result [8] | binding result [9] | binding result [10] | binding result [12] | binding result [13] | binding result [14] | binding result [15] | binding result [16] | binding result [17] | binding result [18] | binding result [21] | binding result [22] | binding result [23] | binding result [25] | also measured
1 | Biotin-PKQANGGAYQKPTKQEEFYA [CD138 (syndecan) C-terminal PL peptide AA18L, biotinylated] | no binding | no binding | no binding | no binding | no binding | no binding | no binding | no binding | no binding | no binding | no binding | no binding | no binding | no binding | no binding | no binding | no binding | no binding | no binding | – | binding result [1]: binds; binding result [11]: no binding; binding result [19]: no binding; binding result [20]: no binding; binding result [24]: binds
2 | Biotin-KDSRPSFVGSSSGHTSTTL [CDW128B (IL8RB) C-terminal PL peptide AA29.2L, biotinylated] | no binding | no binding | no binding | no binding | no binding | no binding | no binding | no binding | no binding | no binding | no binding | no binding | no binding | no binding | no binding | no binding | no binding | no binding | no binding | binds | binding result [26]: binds; binding result [27]: no binding; binding result [28]: no binding; binding result [29]: binds
3 | Biotin-TTNNNPNSAVNIKKIFTDV [KV1.3 C-terminal PL peptide AA33L, biotinylated] | no binding | no binding | no binding | no binding | no binding | no binding | no binding | no binding | no binding | no binding | – | no binding | no binding | no binding | no binding | no binding | no binding | no binding | no binding | binds | binding result [30]: binds; binding result [31]: binds; binding result [27]: no binding; binding result [28]: no binding; binding result [32]: binds; binding result [29]: binds
